Laboratory results published in patent US20060147922A1 (published 2006).

Legend:
[1] = target: T1, EDDF2, central domain of EDD (aa 889-1877) (human, UniProt O95071 889-1877); assay: GSTchk2-N pull-down of IVT EDD deletion mutants
T1 construct: In vitro translated, 35S-labelled; also called central third; central region of EDD
T1 sequence: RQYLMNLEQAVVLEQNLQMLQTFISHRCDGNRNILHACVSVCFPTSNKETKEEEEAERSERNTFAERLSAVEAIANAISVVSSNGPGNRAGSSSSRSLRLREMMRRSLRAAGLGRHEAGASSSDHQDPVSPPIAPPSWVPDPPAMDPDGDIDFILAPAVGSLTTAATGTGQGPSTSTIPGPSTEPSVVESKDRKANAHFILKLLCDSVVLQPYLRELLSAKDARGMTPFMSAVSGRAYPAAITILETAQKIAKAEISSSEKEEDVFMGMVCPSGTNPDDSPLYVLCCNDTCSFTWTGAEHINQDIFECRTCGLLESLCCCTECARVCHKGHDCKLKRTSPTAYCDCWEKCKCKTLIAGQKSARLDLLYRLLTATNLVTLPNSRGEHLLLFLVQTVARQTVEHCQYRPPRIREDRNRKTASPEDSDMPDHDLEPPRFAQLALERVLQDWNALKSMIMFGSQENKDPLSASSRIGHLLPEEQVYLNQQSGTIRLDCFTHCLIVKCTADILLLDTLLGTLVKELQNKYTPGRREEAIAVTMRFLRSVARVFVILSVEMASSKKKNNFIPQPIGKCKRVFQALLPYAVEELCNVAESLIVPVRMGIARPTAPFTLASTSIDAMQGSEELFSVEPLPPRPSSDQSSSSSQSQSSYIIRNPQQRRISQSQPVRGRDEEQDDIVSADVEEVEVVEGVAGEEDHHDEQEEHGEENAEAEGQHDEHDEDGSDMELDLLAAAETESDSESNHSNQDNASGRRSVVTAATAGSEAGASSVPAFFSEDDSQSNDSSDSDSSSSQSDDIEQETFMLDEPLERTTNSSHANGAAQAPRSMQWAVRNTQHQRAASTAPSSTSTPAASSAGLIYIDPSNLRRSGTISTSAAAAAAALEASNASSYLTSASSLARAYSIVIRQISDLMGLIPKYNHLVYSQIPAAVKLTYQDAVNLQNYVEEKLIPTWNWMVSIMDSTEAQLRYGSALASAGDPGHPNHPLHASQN

[2] = target: T2, EDDF3, carboxy domain of EDD (aa 1877-2799) (human, UniProt O95071 1877-2799); assay: GSTchk2-N pull-down of IVT EDD deletion mutants
T2 construct: In vitro translated, 35S-labelled; also called carboxy third; carboxy terminal region of EDD
T2 sequence: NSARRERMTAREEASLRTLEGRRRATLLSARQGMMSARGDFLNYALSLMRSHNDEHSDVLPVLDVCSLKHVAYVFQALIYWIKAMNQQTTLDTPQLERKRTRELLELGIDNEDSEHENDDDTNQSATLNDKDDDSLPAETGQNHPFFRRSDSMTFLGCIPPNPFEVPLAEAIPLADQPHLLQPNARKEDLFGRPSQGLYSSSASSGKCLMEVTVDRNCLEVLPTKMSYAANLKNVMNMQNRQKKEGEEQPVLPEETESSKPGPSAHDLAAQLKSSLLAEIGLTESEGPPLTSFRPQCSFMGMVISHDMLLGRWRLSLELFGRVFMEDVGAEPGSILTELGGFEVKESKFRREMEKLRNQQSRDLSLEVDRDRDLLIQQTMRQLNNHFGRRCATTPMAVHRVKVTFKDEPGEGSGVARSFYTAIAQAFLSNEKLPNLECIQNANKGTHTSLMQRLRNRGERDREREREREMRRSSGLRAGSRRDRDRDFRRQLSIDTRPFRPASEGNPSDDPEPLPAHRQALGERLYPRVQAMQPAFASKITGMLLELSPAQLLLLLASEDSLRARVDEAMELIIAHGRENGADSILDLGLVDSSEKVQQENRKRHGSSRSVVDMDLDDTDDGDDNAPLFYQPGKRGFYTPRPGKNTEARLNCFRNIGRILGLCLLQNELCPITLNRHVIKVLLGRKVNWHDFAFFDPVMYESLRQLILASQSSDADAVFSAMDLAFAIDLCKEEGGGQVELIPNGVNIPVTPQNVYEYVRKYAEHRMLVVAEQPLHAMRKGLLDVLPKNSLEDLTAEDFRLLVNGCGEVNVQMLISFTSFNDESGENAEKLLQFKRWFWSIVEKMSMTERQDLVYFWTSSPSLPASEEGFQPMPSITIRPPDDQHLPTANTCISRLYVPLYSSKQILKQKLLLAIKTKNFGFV

B1: GSTchk2-N (GST fused to chk2 aa 1-225) (other)
chain: MSRESDVEAQQSHGSSACSQPHGSVTQSQGSSSQSQGISSSSTSTMPNSSQSSHSSSGTLSSLETVSTQELYSIPEDQEPEDQEPEEPTPAPWARLWALQDGFANLECVNDNYWFGRDKSCEYCFDEPLLKRTDKYRTYSKKHFRIFREVGPKNSYIAYIEDHSGNGTFVNTELVGKGKRRPLNNNSEIALSLSRNKVFVFFDLTVDDQSVYPKALRDEYIMSKT
notes: contains the SQ/TQ and FHA domains; also called GSTCHK2-N (WT); chk2 N-terminus; not shown: glutathione S-transferase (GST) fusion partner
B1: no binding [1]; no binding [2].
